Results published in patent US20170029481A1 (EPODOSE, published 2017).
Where two headings read alike, the source gives them in different places. Where no end group is shown, it is not given here. [ ]: non-standard residue; d: D form. hLeu = CC(C)CC[C@H](N)C(=O)O; βAla = NCCC(=O)O

Columns and labels:
Experiment in all cases: radioligand binding, displacement of [125I]EPO
[1] = target: T1, erythropoietin receptor, human recombinant (NSO cells) (human) (UniProt P19235)
T1 sequence (looked up): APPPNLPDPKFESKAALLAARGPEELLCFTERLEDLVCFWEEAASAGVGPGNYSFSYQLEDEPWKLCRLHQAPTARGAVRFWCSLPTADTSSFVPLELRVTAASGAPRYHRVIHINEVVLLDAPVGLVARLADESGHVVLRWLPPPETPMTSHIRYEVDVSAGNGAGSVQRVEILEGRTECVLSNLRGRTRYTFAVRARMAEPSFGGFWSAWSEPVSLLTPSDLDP

[2] = target: T2, erythropoietin receptor, human recombinant (NSO cells) (human, UniProt P19235 25-250, limits assumed)
T2 construct: also called EPOR; EPO receptor
T2 sequence (looked up): T1 sequence (looked up)

[3] = target: T2, erythropoietin receptor, human …; remark: listed apart in the source
[4] = target: T2, erythropoietin receptor, human …; remark: listed apart in the source

Ac-NYLRM[hLeu]WVRP (peptide, part only; not given: Bridge, linker and tail moieties, not shown: small tags and cut ends, also: two linked chains, linker and second chain not given here) [EPO mimetic 9. (N-End AcNYL, Loop RMhomoLWV, Mid RP)]
Ki [1]: 23 nM

[DesaminoY]LRMPWVKP (peptide, part only; not given: Bridge, linker and tail moieties, not shown: small tags and cut ends, also: two linked chains, linker and second chain not given here) [EPO mimetic 15. (N-End Desamino YL, Loop RMPWV, Mid KP)]
Ki [1]: 9.6 nM

Ac-NYLRMGWVKP (peptide, part only; not given: Bridge, linker and tail moieties, not shown: small tags and cut ends, also: two linked chains, linker and second chain not given here) [EPO mimetic 2. (N-End AcNYL, Loop RMGWV, Mid KP)]
Ki [1]: 22 nM

Ac-NYLRM[βAla]WVKP (peptide, part only; not given: Bridge, linker and tail moieties, not shown: small tags and cut ends, also: two linked chains, linker and second chain not given here) [EPO mimetic 3. (N-End AcNYL, Loop RMβAWV, Mid KP)]
Ki [1]: 27 nM

Ac-NYLRMGWVRP (peptide, part only; not given: Bridge, linker and tail moieties, not shown: small tags and cut ends, also: two linked chains, linker and second chain not given here) [EPO mimetic 4. (N-End AcNYL, Loop RMGWV, Mid RP)]
Ki [1]: 44 nM

Ac-NYLRMFWVRP (peptide, part only; not given: Bridge, linker and tail moieties, not shown: small tags and cut ends, also: two linked chains, linker and second chain not given here) [EPO mimetic 6. (N-End AcNYL, Loop RMFWV, Mid RP)]
Ki [1]: 17 nM

Ac-NYLRMLWVRP (peptide, part only; not given: Bridge, linker and tail moieties, not shown: small tags and cut ends, also: two linked chains, linker and second chain not given here) [EPO mimetic 8. (N-End AcNYL, Loop RMLWV, Mid RP)]
Ki [1]: 34 nM

B1: AC-0005-001 (peptide)
chain: GGNYLCRMGPITWVCKPQGG
modifications: not fully specified; cysteine pairing not given here
notes: Structure only as drawing CHEM-US-00003; also called compound 001
IC50 [2]: 1300 nM | Ki [2]: 615 nM | Ki (AC-0005-002)/Ki [2]: 6.3

B2: AC-0005-002 (peptide)
chain: GGLYACHMGPITAVCQPQGG
modifications: not fully specified; cysteine pairing not given here
notes: Structure only as drawing CHEM-US-00004; also called compound 002
IC50 [2]: 8170 nM | Ki [2]: 3870 nM | Ki (AC-0005-002)/Ki [2]: 1

B3: AC-0005-003 (peptide)
chain: NYLCRMGPITWVCKP
modifications: not fully specified; cysteine pairing not given here
notes: Structure only as drawing CHEM-US-00005; also called compound 003; Control 2: AC-0005-003
IC50 [2]: 119 nM | Ki [2]: 56 nM | Ki (AC-0005-002)/Ki [2]: 69 | IC50 [3]: 171 nM | Ki [3]: 81 nM | Ki (AC-0005-002)/Ki [3]: 48 | IC50 [4]: 164 nM | Ki [4]: 78 nM | Ki (AC-0005-002)/Ki [4]: 0.041

B4: AC-0005-004 (peptide)
chain: LYACHMGPITAVCQP
modifications: not fully specified; cysteine pairing not given here
notes: Structure only as drawing CHEM-US-00006; also called compound 004
IC50 [2]: 265 nM | Ki [2]: 126 nM | Ki (AC-0005-002)/Ki [2]: 31
